Assay results: patent US20220401523A1
One block for each molecule: values may come before it.

Key:
[1] = biological target: human glucagon-like peptide-1 (GLP-1) receptor (human) (UniProt P43220); assay: cell-based or functional assay
[2] = biological target: human FGFR1c (FGF receptor 1c isoform) together with human beta-Klotho (KLB) (human), P11362; assay: cell-based or functional assay
Chain of human FGFR1c (FGF receptor 1c isoform) together with human beta-Klotho (KLB) (human), P11362 (P11362 22-822, chain 1 of 2): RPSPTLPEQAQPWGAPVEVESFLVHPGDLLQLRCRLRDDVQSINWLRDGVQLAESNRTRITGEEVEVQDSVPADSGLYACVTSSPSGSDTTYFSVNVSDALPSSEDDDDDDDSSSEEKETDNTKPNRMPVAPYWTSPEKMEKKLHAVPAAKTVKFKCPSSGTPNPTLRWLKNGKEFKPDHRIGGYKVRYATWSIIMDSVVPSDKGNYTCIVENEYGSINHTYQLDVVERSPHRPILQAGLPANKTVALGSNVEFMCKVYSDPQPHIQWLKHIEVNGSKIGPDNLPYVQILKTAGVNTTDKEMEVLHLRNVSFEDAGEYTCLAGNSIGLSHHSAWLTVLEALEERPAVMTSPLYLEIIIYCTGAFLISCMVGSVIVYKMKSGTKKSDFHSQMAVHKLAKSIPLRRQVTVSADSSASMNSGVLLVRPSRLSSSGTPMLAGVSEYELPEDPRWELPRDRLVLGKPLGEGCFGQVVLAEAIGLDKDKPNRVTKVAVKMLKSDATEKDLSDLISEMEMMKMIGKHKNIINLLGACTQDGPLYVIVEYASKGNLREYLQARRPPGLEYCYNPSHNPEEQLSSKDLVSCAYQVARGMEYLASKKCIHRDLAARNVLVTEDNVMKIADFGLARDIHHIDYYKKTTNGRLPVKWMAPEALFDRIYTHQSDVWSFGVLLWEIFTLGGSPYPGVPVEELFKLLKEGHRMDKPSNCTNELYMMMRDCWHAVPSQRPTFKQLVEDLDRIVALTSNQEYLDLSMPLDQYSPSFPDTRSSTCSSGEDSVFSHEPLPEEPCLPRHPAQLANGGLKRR
Chain of human FGFR1c (FGF receptor 1c isoform) together with human beta-Klotho (KLB) (human), P11362 (Q86Z14 whole entry, chain 2 of 2, further chain, canonical isoform): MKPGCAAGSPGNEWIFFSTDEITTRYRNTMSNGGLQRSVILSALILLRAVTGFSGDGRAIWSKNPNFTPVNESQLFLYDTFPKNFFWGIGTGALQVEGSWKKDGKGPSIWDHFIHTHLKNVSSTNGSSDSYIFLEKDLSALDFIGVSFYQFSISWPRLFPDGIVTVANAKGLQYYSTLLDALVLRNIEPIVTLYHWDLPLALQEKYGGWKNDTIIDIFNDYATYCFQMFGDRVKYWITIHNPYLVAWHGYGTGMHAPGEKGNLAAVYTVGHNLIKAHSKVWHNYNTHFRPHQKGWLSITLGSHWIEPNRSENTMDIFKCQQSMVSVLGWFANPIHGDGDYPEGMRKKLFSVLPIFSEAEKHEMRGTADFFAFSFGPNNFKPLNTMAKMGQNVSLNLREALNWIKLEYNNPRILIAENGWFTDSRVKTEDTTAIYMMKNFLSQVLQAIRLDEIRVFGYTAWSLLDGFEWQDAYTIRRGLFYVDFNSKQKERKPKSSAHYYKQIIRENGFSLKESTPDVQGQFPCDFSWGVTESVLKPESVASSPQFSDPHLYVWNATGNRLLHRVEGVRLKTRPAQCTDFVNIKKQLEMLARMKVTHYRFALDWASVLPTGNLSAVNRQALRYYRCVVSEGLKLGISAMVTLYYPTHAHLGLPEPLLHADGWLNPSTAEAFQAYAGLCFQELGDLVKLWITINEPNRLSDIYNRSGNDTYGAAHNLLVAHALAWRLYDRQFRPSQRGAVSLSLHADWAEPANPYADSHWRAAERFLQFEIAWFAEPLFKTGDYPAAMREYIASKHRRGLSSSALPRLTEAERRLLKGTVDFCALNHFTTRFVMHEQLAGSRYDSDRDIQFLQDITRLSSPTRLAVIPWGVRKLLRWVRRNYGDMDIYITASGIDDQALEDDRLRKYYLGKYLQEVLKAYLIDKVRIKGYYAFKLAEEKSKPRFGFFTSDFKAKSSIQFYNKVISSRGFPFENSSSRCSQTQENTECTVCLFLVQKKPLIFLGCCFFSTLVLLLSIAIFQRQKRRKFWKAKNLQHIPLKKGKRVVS

Chain of UniProt P43220 (P43220 24-463): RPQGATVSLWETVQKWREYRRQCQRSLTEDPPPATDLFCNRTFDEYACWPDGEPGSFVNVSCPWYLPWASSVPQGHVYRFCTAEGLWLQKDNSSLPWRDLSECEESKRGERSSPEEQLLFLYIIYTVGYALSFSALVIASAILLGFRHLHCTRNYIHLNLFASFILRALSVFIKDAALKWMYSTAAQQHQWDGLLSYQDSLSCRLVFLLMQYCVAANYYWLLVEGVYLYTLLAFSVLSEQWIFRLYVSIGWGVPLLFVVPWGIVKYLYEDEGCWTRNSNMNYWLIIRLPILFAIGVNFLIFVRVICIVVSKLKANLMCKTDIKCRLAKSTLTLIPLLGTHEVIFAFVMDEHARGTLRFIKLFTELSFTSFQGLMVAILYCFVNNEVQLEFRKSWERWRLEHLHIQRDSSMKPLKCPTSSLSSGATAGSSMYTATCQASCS

Molecule: GLP1(7-36) A8G, V16L, S18I, Y19Q, E21D, G22E, Q23E, A25V, K26R, E27L, A30E, V33E, K34A, G35T, R36G, (Fc fusion)
EC50 of cAMP response (HTRF) [1]: 0.675 nM
Ratio GLP-1R agonistic activity: native GLP-1(7-36)/tested GLP-1R agonist [1]: 877 fold

Molecule: GLP1(7-36) A8G, V16L, S18I, Y19Q, E21D, G22E, Q23E, A25V, K26R, E27L, A30E, V33L, K34A, G35T, R36G, (Fc fusion)
EC50 of cAMP response (HTRF) [1]: 0.0605 nM
Ratio GLP-1R agonistic activity: native GLP-1(7-36)/tested GLP-1R agonist [1]: 78.6 fold

Molecule: GLP1(7-36) A8G, V16L, S18K, Y19Q, E21D, G22E, Q23E, A25V, K26Q, E27L, A30E, V33L, K34A, G35T, R36G, (Fc fusion)
EC50 of cAMP response (HTRF) [1]: 0.173 nM
Ratio GLP-1R agonistic activity: native GLP-1(7-36)/tested GLP-1R agonist [1]: 225 fold

Molecule: GLP1(7-36) A8G, V16L, S18K, Y19Q, G22E, Q23E, A25V, K26Q, E27L, A30E, V33E, K34A, G35T, R36G, insPSS (Fc fusion)
EC50 of cAMP response (HTRF) [1]: 0.134 nM
Ratio GLP-1R agonistic activity: native GLP-1(7-36)/tested GLP-1R agonist [1]: 174 fold

pERK ICW EC50 (downstream activation of the MAP kinase ERK1/2, In-Cell Western) [2]: 0.18 nmol/L
pFGFR ICW EC50 (FGF21 receptor autophosphorylation, In-Cell Western) [2]: 4.8 nmol/L
B1: mature human wild-type FGF21, FGF21(His29-Ser209), Q9NSA1 29-209 (ligand)
chain: HPIPDSSPLLQFGGQVRQRYLYTDDAQQTEAHLEIREDGTVGGAADQSPESLLQLKALKPGVIQILGVKTSRFLCQRPDGALYGSLHFDPEACSFRELLLEDGYNVYQSEAHGLPLHLPGNKSPHRDPAPRGPARFLPLPGLPPAPPEPPGILAPQPPDVGSSDPLSMVGPSQGRSPSYAS
